Reference: the supplement of paper PMC10567573

B1: EPB41L3 (parent)
chain: FRFAPNHTKELEDKVIELHKSHRG
B2: KRT13 (parent)
chain: YGGGLGGGFGGGFAGGFVDFGACD

Variants of: B1
Assay: protein stability index of a GFP-peptide fusion (GPS, HEK-293T) (PSI 1-6); higher = more stable
Details: c terminus: a fixed tail appended
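Further: lentivirally expressed fusions sorted by FACS into six bins by GFP to DsRed ratio, PSI derived from sequencing read proportions per bin multiplied by bin number.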

Protein stability index of substitutions, site by site:
F3: R 3.6; L 3.48; E 4.57; P 4.25; C 3.74; D 4.48; H 4.03; N 4.21; S 4.07; I 3.86; M 4.02; Q 4.16; G 4.63; K 4.63; A 3.78
F1: K 4.35; R 4.41; W 2.26; E 4.2; N 3.62; D 4.4; M 3.68; S 4.58; Y 3.73; P 3.99; V 3.08; C 2.93; Q 3.89; G 3.6; H 4.62; T 4.12; A 4.17; I 2.69; L 3.78
R2: C 3.36; N 3.96; P 3.82; K 3.81; D 3.5; H 2.01; A 3.49; Q 3.89; G 3.94; Y 3.27; M 2.89; V 2.36; E 4.02; F 2.81; W 2.88; I 2.03; S 3.56; T 3.79; L 2.78

Variants of: B2
Assay: as above
Details: c terminus: a fixed tail appended

Protein stability index of substitutions, site by site:
G16: T 2.02; C 3.82; L 4.03; I 2.53; D 1.94; H 1.4; E 1.69; M 2.76; S 1.83; Y 2.16; W 3.21; R 1.8
F13: Q 2.8; P 2.09; Y 2.39; K 2.25; I 1.79; R 1.77; G 2.08; V 2.12; M 2.28; L 1.28; S 2.16; C 2.11; E 2.32
V18: G 3.27; L 1.38; Y 1.58; Q 1.92; D 1.93; T 2.17; M 1.65; A 2.34; N 1.5; K 2.09; I 1.6; W 2.79
G7: Q 1.23; E 1.91; N 1.31; R 1.74; P 1.84; C 3.15; S 1.48; I 1.9; H 1.92; D 1.89; M 2.46; Y 2.36; A 2.41
G10: H 1.7; T 1.26; V 1.93; N 1.38; P 1.92; I 1.58; K 1.53; D 2.03; Y 3.74; A 2.01; C 4; F 2.02
G4: A 1.89; H 1.6; D 2.52; S 2.42; W 2.33; N 1.8; F 1.7; P 2.03; T 1.87; E 1.95; K 2.84
G8: A 1.93; H 3; P 1.75; T 1.77; N 1.78; D 2.41; S 2.72; W 3.32; R 1.67; C 1.26; Q 1.23
G3: T 2.3; L 1.58; N 2.2; W 1.18; P 2.03; E 2.33; F 1.88; S 1.84; M 2.51; C 1.87; I 2.29
F9: N 2; Q 2.1; V 1.94; E 2.65; T 2.28; M 1.45; C 1.79; D 2.46; Y 1.69; A 1.68; P 1.75; R 1.69; L 1.76; K 1.64; G 1.87; S 1.85
G2: F 2.91; K 1.86; I 3.26; L 3.13; E 2.66; Y 1.63; D 2.67; N 2.23; R 2.33; W 2.56; S 1.54
Y1: D 3.61; E 3.3; R 2.76; W 2.08; K 2.68; N 3.65; S 3.23; F 1.16; Q 3.12; G 3.48; T 2.73; L 1.92; V 3.53
L5: I 2.27; A 1.64; Y 2.79; F 1.38; R 2.62; D 2.04; C 1; K 1.51; T 2.22; Q 2.02; H 1.8; G 1.87; E 2.51; S 1.36
G12: R 2.24; L 2.25; I 2.4; H 1.4; S 1.77; W 1.34; M 2.92; Q 1.39; P 2.17; E 1.84; D 2.22; K 1.69; C 2.75; F 3.05
D19: K 2; Y 2.33; S 2.12; R 1.96; P 1.32; V 2.61; T 1.95; G 2.41
D24: T 1.91; R 2.16; I 5.23; E 2.57; K 1.43; Q 1.91; V 2.45; N 3.54; H 1.49
C23: P 1.8; L 1.72; E 2.14; T 1.81; I 1.53; A 3.97; M 1.49; N 1.76; D 1.31; K 2.01; G 1.83; S 1.92
A22: Y 1.99; V 2.4; E 1.92; H 1.54; N 1.95; P 2.27; M 2.09; K 1.98; Q 2.34; D 1.42; T 1.9
G21: E 1.88; Y 3.5; V 1.6; Q 1.76; P 1.67; R 2.37; T 2.69; F 2.87; H 1.93; N 1.68; S 2.02; M 2.21
G11: H 1.75; Y 4.04; N 2.43; Q 1.73; K 1.97; R 1.86; F 2.07; D 2.38; C 1.56; M 2.25; L 3.08
F20: W 2.62; Q 2.36; A 1.69; Y 1.5; G 1.75; K 2.11; D 2.19; M 1.53; T 2.22; P 1.69
G6: W 3.1; D 1.89; S 1.4; C 2.27; P 3.58; H 1.79; K 1.67; Q 2.38; I 3.11; R 1.54; M 1.81; N 1.65; F 1.68
A14: R 2.03; P 2.02; N 1.48; H 3.03; F 2.8; I 2.46; D 1.86; V 1.89; S 1.86; K 1.82; W 2.15; C 2.47; M 3.11
G15: T 1.61; Q 2.07; M 4.08; E 1.89; S 1.77; H 1.65; P 2.71; N 2.55; I 3.13; R 2.42; A 1.2
F17: Q 1.93; P 1.81; N 2.55; T 1.77; M 2.11; D 2.43; E 2.44; Y 2.01
